Test results taken from the supplement of paper PMC9876800.

Test system: peptide library, one residue held at a place counted from the S/T acceptor
Test: relative phosphorylation of the sub-library (ratio to the mean residue at this position); higher = residue favoured
Conditions: human
Outline: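 Purified recombinant kinases were reacted in 384-well plates with biotinylated degenerate peptide sub-libraries, each having one residue fixed at one position around a central Ser/Thr. The reaction mix contained 50 μM peptide plus 50 μM ATP spiked with γ-32P-ATP and ran for 90 min under kinase-specific conditions. Relative sub-library phosphorylation, taken from densitometry of phosphorimaged streptavidin membrane spots, is a ratio to the mean residue at that position.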

ATM, construct: Full length, sequence (Q13315 whole entry, looked up): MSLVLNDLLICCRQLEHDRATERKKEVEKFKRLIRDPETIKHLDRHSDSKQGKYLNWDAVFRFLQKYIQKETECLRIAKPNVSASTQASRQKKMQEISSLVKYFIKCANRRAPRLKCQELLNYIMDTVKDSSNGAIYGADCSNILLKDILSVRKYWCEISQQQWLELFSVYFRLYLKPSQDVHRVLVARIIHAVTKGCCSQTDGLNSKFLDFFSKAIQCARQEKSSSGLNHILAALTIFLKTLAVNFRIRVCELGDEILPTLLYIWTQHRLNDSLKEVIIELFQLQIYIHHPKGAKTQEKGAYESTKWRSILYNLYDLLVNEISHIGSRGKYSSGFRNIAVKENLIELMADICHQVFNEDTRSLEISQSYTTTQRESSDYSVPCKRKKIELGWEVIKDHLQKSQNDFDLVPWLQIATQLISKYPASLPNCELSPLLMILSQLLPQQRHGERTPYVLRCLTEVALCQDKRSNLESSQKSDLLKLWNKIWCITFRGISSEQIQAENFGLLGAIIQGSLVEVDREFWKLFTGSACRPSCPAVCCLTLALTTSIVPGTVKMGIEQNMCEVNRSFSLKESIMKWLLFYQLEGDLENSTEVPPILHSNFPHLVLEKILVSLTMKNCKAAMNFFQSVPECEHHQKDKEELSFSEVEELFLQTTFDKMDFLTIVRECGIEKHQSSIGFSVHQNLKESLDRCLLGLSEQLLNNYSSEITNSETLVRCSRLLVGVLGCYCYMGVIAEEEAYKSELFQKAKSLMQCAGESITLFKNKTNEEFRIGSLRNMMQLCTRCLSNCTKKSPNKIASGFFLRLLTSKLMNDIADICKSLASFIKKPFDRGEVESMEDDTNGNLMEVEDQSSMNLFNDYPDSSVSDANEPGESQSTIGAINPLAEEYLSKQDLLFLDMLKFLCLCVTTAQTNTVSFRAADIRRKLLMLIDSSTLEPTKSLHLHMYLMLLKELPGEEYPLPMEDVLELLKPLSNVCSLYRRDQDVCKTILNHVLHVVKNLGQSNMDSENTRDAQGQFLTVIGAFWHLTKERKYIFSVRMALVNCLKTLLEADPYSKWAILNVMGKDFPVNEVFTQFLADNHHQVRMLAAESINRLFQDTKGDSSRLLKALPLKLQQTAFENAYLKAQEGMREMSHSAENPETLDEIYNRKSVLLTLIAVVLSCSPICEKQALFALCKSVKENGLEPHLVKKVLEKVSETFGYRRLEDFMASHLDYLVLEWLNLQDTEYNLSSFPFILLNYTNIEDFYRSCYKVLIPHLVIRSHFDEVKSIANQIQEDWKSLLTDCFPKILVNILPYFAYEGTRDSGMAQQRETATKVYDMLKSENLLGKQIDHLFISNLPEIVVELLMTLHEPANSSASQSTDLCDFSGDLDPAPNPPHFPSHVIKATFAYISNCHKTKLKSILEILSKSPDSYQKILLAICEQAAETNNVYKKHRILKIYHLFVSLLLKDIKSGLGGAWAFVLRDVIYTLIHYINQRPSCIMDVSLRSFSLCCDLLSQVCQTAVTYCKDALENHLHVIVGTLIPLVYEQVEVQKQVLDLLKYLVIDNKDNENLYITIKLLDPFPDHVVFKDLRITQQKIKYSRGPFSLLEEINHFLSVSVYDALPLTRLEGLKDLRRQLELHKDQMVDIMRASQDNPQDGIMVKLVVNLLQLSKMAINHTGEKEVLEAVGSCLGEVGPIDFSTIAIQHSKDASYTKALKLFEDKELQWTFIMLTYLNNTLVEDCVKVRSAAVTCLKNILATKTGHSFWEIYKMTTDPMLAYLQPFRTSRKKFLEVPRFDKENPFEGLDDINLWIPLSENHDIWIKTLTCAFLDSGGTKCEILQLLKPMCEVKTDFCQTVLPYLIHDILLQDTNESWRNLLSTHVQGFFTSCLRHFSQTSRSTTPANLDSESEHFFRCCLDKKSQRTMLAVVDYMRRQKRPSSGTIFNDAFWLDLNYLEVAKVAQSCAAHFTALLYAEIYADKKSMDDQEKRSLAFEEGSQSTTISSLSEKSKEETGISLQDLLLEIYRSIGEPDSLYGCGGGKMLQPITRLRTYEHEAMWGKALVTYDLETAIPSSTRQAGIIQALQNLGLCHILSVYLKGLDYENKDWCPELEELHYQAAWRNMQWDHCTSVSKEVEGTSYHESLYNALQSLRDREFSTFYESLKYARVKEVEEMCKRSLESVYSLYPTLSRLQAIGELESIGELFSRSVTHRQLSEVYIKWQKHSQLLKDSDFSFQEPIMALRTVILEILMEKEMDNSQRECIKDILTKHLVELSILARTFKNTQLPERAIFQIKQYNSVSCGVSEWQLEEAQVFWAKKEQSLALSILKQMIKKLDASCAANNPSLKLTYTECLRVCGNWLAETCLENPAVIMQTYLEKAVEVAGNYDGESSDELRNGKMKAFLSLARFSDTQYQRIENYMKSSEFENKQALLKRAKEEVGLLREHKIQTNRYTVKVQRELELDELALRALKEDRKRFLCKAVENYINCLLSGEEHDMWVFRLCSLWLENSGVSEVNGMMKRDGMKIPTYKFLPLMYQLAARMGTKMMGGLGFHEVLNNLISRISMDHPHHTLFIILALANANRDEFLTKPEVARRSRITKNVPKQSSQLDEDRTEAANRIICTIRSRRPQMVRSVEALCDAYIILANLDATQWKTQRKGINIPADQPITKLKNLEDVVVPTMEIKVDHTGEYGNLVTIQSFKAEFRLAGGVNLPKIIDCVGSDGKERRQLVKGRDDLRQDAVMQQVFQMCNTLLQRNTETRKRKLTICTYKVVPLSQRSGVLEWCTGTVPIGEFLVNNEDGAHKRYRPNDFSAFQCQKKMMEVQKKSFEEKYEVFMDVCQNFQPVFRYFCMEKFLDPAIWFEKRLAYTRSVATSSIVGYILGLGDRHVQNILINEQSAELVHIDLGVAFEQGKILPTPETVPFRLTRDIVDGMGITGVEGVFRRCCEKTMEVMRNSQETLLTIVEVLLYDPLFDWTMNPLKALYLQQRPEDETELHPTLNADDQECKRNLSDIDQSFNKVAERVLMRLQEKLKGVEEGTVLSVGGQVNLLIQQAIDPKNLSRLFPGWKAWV
CAMK2A, construct: Full length, sequence (Q9UQM7 whole entry, looked up): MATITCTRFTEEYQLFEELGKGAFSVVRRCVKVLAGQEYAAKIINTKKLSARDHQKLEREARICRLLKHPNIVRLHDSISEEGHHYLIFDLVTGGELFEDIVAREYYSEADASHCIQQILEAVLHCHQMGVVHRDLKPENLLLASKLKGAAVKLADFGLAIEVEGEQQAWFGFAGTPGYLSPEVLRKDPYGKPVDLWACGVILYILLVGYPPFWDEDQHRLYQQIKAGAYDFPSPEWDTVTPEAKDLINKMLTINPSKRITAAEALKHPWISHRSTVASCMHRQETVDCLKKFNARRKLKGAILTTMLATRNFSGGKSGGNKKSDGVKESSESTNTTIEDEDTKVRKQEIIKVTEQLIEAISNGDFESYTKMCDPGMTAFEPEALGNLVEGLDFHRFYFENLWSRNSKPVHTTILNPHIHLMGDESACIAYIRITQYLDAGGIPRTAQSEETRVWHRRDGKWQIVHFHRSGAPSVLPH

CAMK2A, construct: Full length (from UniProt Q9UQM7)
relative phosphorylation
Conditions	at +1	at +2	at +3	at +4	at -1	at -2	at -3	at -4	at -5
A fixed	0.609	0.742	0.885	0.931	0.81	1.37	0.689	1.08	0.921
D fixed	0.816	5.44	2.48	1.96	1.65	0.692	0.352	0.607	0.452
E fixed	1.32	2.31	2.59	1.81	1.16	0.765	0.464	0.985	0.461
F fixed	2.06	0.382	0.664	0.797	0.567	0.62	0.53	0.867	1.36
G fixed	0.59	0.713	1.11	1.11	0.789	1.02	0.591	0.941	0.758
H fixed	0.848	0.976	1.06	1.1	1.05	0.992	0.978	1.08	1.05
I fixed	1.09	0.334	0.431	0.511	0.374	0.31	0.369	0.656	0.866
K fixed	0.719	0.694	0.803	0.792	1.36	1.21	2.13	1.42	0.793
L fixed	1.09	0.331	0.642	0.513	0.629	0.4	0.378	0.733	1.79
M fixed	1.42	0.387	0.515	0.568	0.753	1.07	0.517	0.96	1.06
N fixed	0.955	1.02	1.06	0.977	1.65	1.09	0.706	0.689	0.618
P fixed	0.594	0.73	1.01	1.55	1.88	0.659	1.13	1.43	1.25
Q fixed	1.41	0.696	0.973	1	1.37	2.96	0.902	1.04	0.747
R fixed	0.735	0.781	0.762	0.557	1.02	1.47	5.38	1.4	1.27
V fixed	1.22	0.44	0.614	0.664	0.527	0.389	0.379	0.776	0.867
W fixed	0.527	0.452	0.634	1.15	0.5	1.21	0.837	1.31	1.59
Y fixed	1	0.574	0.774	1.01	0.905	0.765	0.665	1.02	1.15
pThr fixed	1.89	1.82	2.45	4.37	0.489	0.486	0.496	0.738	0.605
pTyr fixed	1.53	4.53	2.49	2.88	1.8	0.503	0.514	0.804	0.813

ATM, construct: Full length (from UniProt Q13315)
relative phosphorylation
Conditions	at +1	at +2	at +3	at +4	at -1	at -2	at -3	at -4	at -5
A fixed	0.429	0.858	0.748	0.776	0.759	1.18	0.922	0.959	1.1
D fixed	0.42	2.02	1.28	1.27	2.27	1.56	1.26	1.3	1.11
E fixed	0.85	2.16	1.45	1.45	1.62	1.77	1.52	1.5	1.08
F fixed	0.701	0.658	1.5	1.23	1.1	0.868	1.14	1.2	1.4
G fixed	0.361	0.756	0.691	0.922	1.06	0.93	0.848	0.995	0.987
H fixed	0.38	0.918	0.67	0.84	1.09	0.936	0.936	0.912	0.879
I fixed	0.594	0.872	1.03	1.08	0.405	0.685	0.814	0.906	1.06
K fixed	0.384	0.649	0.5	0.499	0.376	0.696	0.681	0.721	0.662
L fixed	0.621	0.77	1.59	1.11	1.56	0.692	0.867	0.96	0.987
M fixed	0.672	0.787	1.26	1.25	1.05	0.85	1.18	0.995	0.971
N fixed	0.748	1.21	0.742	0.791	1.83	1.24	0.842	0.789	0.859
P fixed	0.448	1.1	0.742	0.779	0.412	0.906	0.643	0.819	0.784
Q fixed	8.34	1.1	0.989	0.787	0.731	1.28	0.792	0.733	0.617
R fixed	0.648	0.839	0.545	0.577	0.518	1.13	1.66	0.865	0.894
V fixed	0.521	1.01	0.875	0.873	0.387	0.716	0.671	0.818	1.1
W fixed	0.421	0.514	1.31	1.51	0.525	0.736	1.06	1.27	1.26
Y fixed	0.466	0.798	1.08	1.25	1.31	0.823	1.17	1.25	1.25
pThr fixed	0.577	1.47	0.933	1.49	0.748	1.37	1.15	1.21	0.84
pTyr fixed	0.468	1.85	1.26	2.74	3.86	1.68	1.7	1.23	1.05
